These results are taken from article PMC2156174.

As a reminder, the stoichiometry N is the number of molecules, sites or subunits per partner or assembly.

For the assay, the target named is endogenous Tom40 (N. crassa (endogenous in isolated mitochondria)) (UniProt P24391). Briefly: cross-linking.

For the substance “endogenous Tom40 (from UniProt P24391 1-349) (natural protein)”, the stoichiometry N amounted to 2.
